# Experimental data reported in article PMC5762417.
# What was measured:
# DDX21 = assay: EMSA
# [1] = target: Rev WT, labelled with Alexa 555 (HIV-1) (UniProt P04616); assay: fluorescence polarisation
# [2] = target: Rev (Human immunodeficiency virus 1) (UniProt P04325); assay: fluorescence binding; conditions: cited from earlier work
Molecule,Kd [1] [nM],further results
RRE RNA (EMSA),–,Kd (DDX21): 37 nM
DDX3 DEAD domain (aa 211-403) (from UniProt O00571 211-403) (domain or fragment),200,–
DDX1 DEAD domain (from UniProt Q92499),–,Kd [2]: 79 nM
DDX3 (from UniProt O00571 1-662) (enzyme),122,–
DDX21 (enzyme) MPGKLRSDAGLESDTAMKKGETLRKQTEEKEKKEKPKSDKTEEIAEEEETVFPKAKQVKKKAEPSEVDMNSPKSKKAKKKEEPSQNDISPKTKSLRKKKEPIEKKVVSSKTKKVTKNEEPSEEEIDAPKPKKMKKEKEMNGETREKSPKLKNGFPHPEPDCNPSEAASEESNSEIEQEIPVEQKEGAFSNFPISEETIKLLKGRGVTFLFPIQAKTFHHVYSGKDLIAQARTGTGKTFSFAIPLIEKLHGELQDRKRGRAPQVLVLAPTRELANQVSKDFSDITKKLSVACFYGGTPYGGQFERMRNGIDILVGTPGRIKDHIQNGKLDLTKLKHVVLDEVDQMLDMGFADQVEEILSVAYKKDSEDNPQTLLFSATCPHWVFNVAKKYMKSTYEQVDLIGKKTQKTAITVEHLAIKCHWTQRAAVIGDVIRVYSGHQGRTIIFCETKKEAQELSQNSAIKQDAQSLHGDIPQKQREITLKGFRNGSFGVLVATNVAARGLDIPEVDLVIQSSPPKDVESYIHRSGRTGRAGRTGVCICFYQHKEEYQLVQVEQKAGIKFKRIGVPSATEIIKASSKDAIRLLDSVPPTAISHFKQSAEKLIEEKGAVEALAAALAHISGATSVDQRSLINSNVGFVTMILQCSIEMPNISYAWKELKEQLGEEIDSKVKGMVFLKGKLGVCFDVPTASVTEIQEKWHDSRRWQLSVATEQPELEGPREGYGGFRGQREGSRGFRGQRDGNRRFRGQREGSRGPRGQRSGGGNKSNRSQNKGQKRSFSKAFGQ,21,–
DDX21(183-620) (domain or fragment) QKEGAFSNFPISEETIKLLKGRGVTFLFPIQAKTFHHVYSGKDLIAQARTGTGKTFSFAIPLIEKLHGELQDRKRGRAPQVLVLAPTRELANQVSKDFSDITKKLSVACFYGGTPYGGQFERMRNGIDILVGTPGRIKDHIQNGKLDLTKLKHVVLDEVDQMLDMGFADQVEEILSVAYKKDSEDNPQTLLFSATCPHWVFNVAKKYMKSTYEQVDLIGKKTQKTAITVEHLAIKCHWTQRAAVIGDVIRVYSGHQGRTIIFCETKKEAQELSQNSAIKQDAQSLHGDIPQKQREITLKGFRNGSFGVLVATNVAARGLDIPEVDLVIQSSPPKDVESYIHRSGRTGRAGRTGVCICFYQHKEEYQLVQVEQKAGIKFKRIGVPSATEIIKASSKDAIRLLDSVPPTAISHFKQSAEKLIEEKGAVEALAAALAHISG,48,–
DDX21 DEAD domain (aa 217-396) (domain or fragment) FHHVYSGKDLIAQARTGTGKTFSFAIPLIEKLHGELQDRKRGRAPQVLVLAPTRELANQVSKDFSDITKKLSVACFYGGTPYGGQFERMRNGIDILVGTPGRIKDHIQNGKLDLTKLKHVVLDEVDQMLDMGFADQVEEILSVAYKKDSEDNPQTLLFSATCPHWVFNVAKKYMKSTYEQ,60,–
DDX1 (enzyme) MAAFSEMGVMPEIAQAVEEMDWLLPTDIQAESIPLILGGGDVLMAAETGSGKTGAFSIPVIQIVYETLKDQQEGKKGKTTIKTGASVLNKWQMNPYDRGSAFAIGSDGLCCQSREVKEWHGCRATKGLMKGKHYYEVSCHDQGLCRVGWSTMQASLDLGTDKFGFGFGGTGKKSHNKQFDNYGEEFTMHDTIGCYLDIDKGHVKFSKNGKDLGLAFEIPPHMKNQALFPACVLKNAELKFNFGEEEFKFPPKDGFVALSKAPDGYIVKSQHSGNAQVTQTKFLPNAPKALIVEPSRELAEQTLNNIKQFKKYIDNPKLRELLIIGGVAARDQLSVLENGVDIVVGTPGRLDDLVSTGKLNLSQVRFLVLDEADGLLSQGYSDFINRMHNQIPQVTSDGKRLQVIVCSATLHSFDVKKLSEKIMHFPTWVDLKGEDSVPDTVHHVVVPVNPKTDRLWERLGKSHIRTDDVHAKDNTRPGANSPEMWSEAIKILKGEYAVRAIKEHKMDQAIIFCRTKIDCDNLEQYFIQQGGGPDKKGHQFSCVCLHGDRKPHERKQNLERFKKGDVRFLICTDVAARGIDIHGVPYVINVTLPDEKQNYVHRIGRVGRAERMGLAISLVATEKEKVWYHVCSSRGKGCYNTRLKEDGGCTIWYNEMQLLSEIEEHLNCTISQVEPDIKVPVDEFDGKVTYGQKRAAGGGSYKGHVDILAPTVQELAALEKEAQTSFLHLGYLPNQLFRTF,41,–
